Test results from patent US20230312722A1 (NONA BIOSCIENCES SUZHOU, published 2023).

Key:
[1] = biological target: T1, human B7H4 on the cell surface (human, UniProt Q7Z7D3 25-282); assay: FACS, CHOK1/hu B7H4 cells
T1 construct: whole, on cells; also called CHOK1/hu B7H4; B7H4 on SK-BR-3
T1 sequence (looked up): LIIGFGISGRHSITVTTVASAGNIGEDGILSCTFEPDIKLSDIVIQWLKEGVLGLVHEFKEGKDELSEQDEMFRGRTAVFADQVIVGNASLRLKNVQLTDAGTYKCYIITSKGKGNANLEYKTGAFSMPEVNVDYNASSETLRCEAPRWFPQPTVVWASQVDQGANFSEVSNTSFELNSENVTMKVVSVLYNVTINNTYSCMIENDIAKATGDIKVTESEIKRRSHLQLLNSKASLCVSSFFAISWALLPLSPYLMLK
Procedure: This example is intended to investigate the in vitro binding activity of anti-human B7H4 H2L2 monoclonal antibody to human/cynomolgus monkey/mouse B7H4. Antibody binding experiments at the cellular level were performed using CHOK1 cell line overexpressing human B7H4 (CHOK1/hu B7H4, Harbour BioMed), CHOK1 cell line overexpressing cynomolgus monkey B7H4 (CHOK1/cyno B7H4, Harbour BioMed), CHOK1 cell line overexpressing mouse B7H4 (CHOK1/m B7H4, Harbour BioMed) and SK-BR-3 cell line (ATCC® HTB-30) highly expressing human B7H4. Briefly, CHOK1/hu B7H4 cells, CHOK1/cyno B7H4 cells, CHOK1/m B7H4 cells or SK-BR-3 cells were digested and resuspended with PBS containing 2% BSA. The cell density was adjusted to 1×10⁶ cells/mL. The cells were seeded in a 96-well V-bottom plate (Corning, #3894) at 100 μL/well, followed by the addition of test antibodies diluted in a 3-fold concentration gradient of 2 times the final concentration, each at 100 μL/well. The cells were incubated at 4° C. for 2 h away from light. Thereafter, the cells in each well were rinsed twice with 100 μL of pre-cooled PBS containing 2% BSA, and centrifuged at 500 g at 4° C. for 5 min, and then the supernatant was discarded. Then 100 μL of a fluorescent secondary antibody (Alexa Fluor 488-conjugated AffiniPure Goat Anti-Human IgG, Fcγ Fragment Specific, Jackson, #109-545-098, 1:500 diluted) was added to each well. The plate was incubated away from light at 4° C. for 1 h. The cells in each well were washed twice with 100 μL of pre-cooled PBS containing 2% BSA, and centrifuged at 500 g at 4° C. for 5 minutes, and then the supernatant was discarded. Finally, the cells in each well were resuspended with 200 μL of pre-cooled PBS containing 2% BSA, and the fluorescence signal values were read using an ACEA Novocyte3000 flow cytometer.

[2] = biological target: T2, B7-H4 (Acro Biosystems, #B74-H82E2) (UniProt Q7Z7D3 29-258); assay: BLI epitope competition; 1st Ab = row; competitor (2nd Ab) Control antibody 1; inhibition of the 2nd Ab signal
T2 construct: Bought protein; also called B7-H4 captured on SA sensor
T2 sequence (looked up): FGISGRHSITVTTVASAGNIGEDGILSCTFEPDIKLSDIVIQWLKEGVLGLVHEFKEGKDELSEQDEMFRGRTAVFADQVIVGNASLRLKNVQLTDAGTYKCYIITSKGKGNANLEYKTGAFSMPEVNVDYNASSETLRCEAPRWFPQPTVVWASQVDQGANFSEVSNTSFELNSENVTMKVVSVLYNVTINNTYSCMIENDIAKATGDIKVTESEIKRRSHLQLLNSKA
Procedure: Step one, acquisition of 100% signal of antibodies: B7-H4 (Acro Biosystems, #B74-H82E2-200 μg) was captured at a capture height of 0.25 nm using an SA sensor (Fortebio, #18-5019). The sensor was equilibrated in a buffer for 120 s and then immersed in each antibody diluted to 100 nM for 240 s, and the final signal of the antibody binding to B7-H4 was recorded as the 100% signal of the antibody. Step two, epitope competition experiment: B7-H4 was captured using an SA sensor at a capture height of 0.25 nm. The sensor was immersed in a primary antibody (at a concentration of 100 nM) for 240 s, and then the SA sensor was immersed in a mixture of the primary and secondary antibodies (both at a final concentration of 100 nM) for 240 s, and the difference in signals after immersion of the sensor in the antibody mixture was recorded as the signal of the antibody as the secondary antibody. The inhibition rate was calculated according to the following formula: […]

EC50 [1]: 1.94 nM
Maximum MFI [1]: 1.84e+06 MFI
Competitive inhibition rate (%) [2]: 95.3%
B1: Control antibody 1 (PR000157) (antibody, V domains shown)
VH: EVQLVQSGAEVKKPGASVKVSCKASGYTFTSYWIGWVRQAPGQGLEWIGDIYPGGGYTNYNEKFKGRVTITRDTSTSTAYLELSSLRSEDTAVYYCARLAGSSYRGAMDSWGQGTLVTVSS
VL: DIQMTQSPSSLSASVGDRVTITCKASQGFNKYVAWYQQKPGKAPKLLIYYTSTLQPGVPSRFSGSGSGRDYTLTISSLQPEDFATYYCLQYGDLLYAFGQGTKVEIKR
notes: Anti-B7H4 IgG1 control antibody from WO2016040724A1; also called 1D11.v1.9varC2
